# US20100292181
# T1: Synthetic peptide S3 conjugated to a penetratin peptide
# T1 chain: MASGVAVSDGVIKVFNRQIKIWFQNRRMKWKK
# B1: purified LIMK1 (protein)
# chain: GSSARQKPVLRSCSIDRSPGAGSLGSPASQRKDLGRSESLRVVCRPHRIFRPSDLIHGEVLGKGCFGQAIKVTHRETGEVMVMKELIRFDEETQRTFLKEVKVMRCLEHPNVLKFIGVLYKDKRLNFITEYIKGGTLRGIIKSMDSQYPWSQRVSFAKDIASGMAYLHSMNIIHRDLNSHNCLVRENKNVVVADFGLARLMVDEKTQPEGLRSLKKPDRKKRYTVVGNPYWMAPEMINGRSYDEKVDVFSFGIVLCEIIGRVNADPDYLPRTMDFGLNVRGFLDRYCPPNCPPSFFPITVRCCDLDPEKRPSFVKLEHWLETLRMHLAGHLPLGPQLEQLDRGFWETYRRGESG
# Tests used:
# [1] = molecular target: GST-tagged recombinant human cofilin
# Sequence of GST-tagged recombinant human cofilin (chain, as listed by the source): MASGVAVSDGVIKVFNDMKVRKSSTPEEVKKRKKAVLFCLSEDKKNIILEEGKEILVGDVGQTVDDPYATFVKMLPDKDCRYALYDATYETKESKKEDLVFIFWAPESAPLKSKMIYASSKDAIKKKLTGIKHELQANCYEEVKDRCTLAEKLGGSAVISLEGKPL
# [2] = molecular target: T1, Synthetic peptide S3 conjugated to a …
protein,measurement,setting,value
B1,cofilin phosphorylation in the in vitro LIMK1 kinase assay (western blot for phospho-cofilin ser3),[1],the phosphorylation of cofilin by LIMK1
same,cofilin phosphorylation in the in vitro LIMK1 kinase assay (western blot for phospho-cofilin ser3),[2],S3 inhibited cofilin phosphorylation by LIMK1
